{
  "source": "the supplement of paper PMC10567573",
  "parents": {"B1": {"name": "EHMT1 (parent)", "chain": "FHKDCASRVNNASYCPHCGEESSK"}, "B2": {"name": "ZBED2 (parent)", "chain": "FHLAPARAGHHPNQYATCRLCGRQ"}},
  "data": [
    {"variants_of": "B1", "experiment": "protein stability index of a GFP-peptide fusion (GPS, HEK-293T) (PSI 1-6); higher = more stable", "conditions": "c terminus: a fixed tail appended", "values": [
      {"variant": "H2P", "protein stability index": 3.37},
      {"variant": "N10A", "protein stability index": 3.6},
      {"variant": "F1N", "protein stability index": 4.87},
      {"variant": "V9T", "protein stability index": 3.73},
      {"variant": "H17C", "protein stability index": 3.45},
      {"variant": "D4A", "protein stability index": 3.16},
      {"variant": "S13P", "protein stability index": 3.12},
      {"variant": "E21Q", "protein stability index": 3.12},
      {"variant": "F1I", "protein stability index": 4.55},
      {"variant": "D4V", "protein stability index": 2.41},
      {"variant": "Y14R", "protein stability index": 3.52},
      {"variant": "E20F", "protein stability index": 2.93},
      {"variant": "H2Q", "protein stability index": 3.1},
      {"variant": "P16L", "protein stability index": 3.35},
      {"variant": "E21S", "protein stability index": 2.71},
      {"variant": "A12R", "protein stability index": 3.33},
      {"variant": "V9D", "protein stability index": 3.94},
      {"variant": "S13M", "protein stability index": 3.13},
      {"variant": "S7K", "protein stability index": 4.04},
      {"variant": "S23P", "protein stability index": 3.15},
      {"variant": "E21C", "protein stability index": 3.07},
      {"variant": "R8Q", "protein stability index": 3.59},
      {"variant": "C5M", "protein stability index": 2.46},
      {"variant": "D4H", "protein stability index": 2.84},
      {"variant": "N11I", "protein stability index": 2.22},
      {"variant": "C15G", "protein stability index": 3.82},
      {"variant": "H17P", "protein stability index": 2.87},
      {"variant": "C15F", "protein stability index": 3.04},
      {"variant": "A6T", "protein stability index": 3.6},
      {"variant": "P16K", "protein stability index": 3.57},
      {"variant": "S22N", "protein stability index": 3.93},
      {"variant": "F1P", "protein stability index": 4.43},
      {"variant": "A6R", "protein stability index": 2.97},
      {"variant": "S23A", "protein stability index": 3.63},
      {"variant": "C5E", "protein stability index": 2.82},
      {"variant": "E20H", "protein stability index": 2.99},
      {"variant": "R8L", "protein stability index": 3.39},
      {"variant": "S23N", "protein stability index": 3.41},
      {"variant": "C18S", "protein stability index": 3.68},
      {"variant": "C5N", "protein stability index": 2.61},
      {"variant": "S23D", "protein stability index": 3.39},
      {"variant": "F1Y", "protein stability index": 3.85},
      {"variant": "K3E", "protein stability index": 3.83},
      {"variant": "C15Y", "protein stability index": 2.74},
      {"variant": "S23W", "protein stability index": 2.69},
      {"variant": "C5H", "protein stability index": 2.3},
      {"variant": "H17E", "protein stability index": 3.47},
      {"variant": "C5A", "protein stability index": 2.53},
      {"variant": "N10R", "protein stability index": 2.99},
      {"variant": "G19L", "protein stability index": 3.67},
      {"variant": "A6M", "protein stability index": 3.07},
      {"variant": "H2R", "protein stability index": 3.65},
      {"variant": "N10K", "protein stability index": 3.1},
      {"variant": "S23L", "protein stability index": 3.15},
      {"variant": "D4R", "protein stability index": 2.3},
      {"variant": "S7A", "protein stability index": 3.71},
      {"variant": "S23Y", "protein stability index": 3.6},
      {"variant": "S7H", "protein stability index": 4.18},
      {"variant": "R8G", "protein stability index": 3.97},
      {"variant": "G19F", "protein stability index": 3},
      {"variant": "N11F", "protein stability index": 2.48},
      {"variant": "P16M", "protein stability index": 3.07},
      {"variant": "A12F", "protein stability index": 2.48},
      {"variant": "C18V", "protein stability index": 3.75},
      {"variant": "C15S", "protein stability index": 3.55},
      {"variant": "G19V", "protein stability index": 4.11},
      {"variant": "A12D", "protein stability index": 4.27},
      {"variant": "A12C", "protein stability index": 3.35},
      {"variant": "H17F", "protein stability index": 2.96},
      {"variant": "K3Q", "protein stability index": 2.27}
    ]},
    {"variants_of": "B2", "experiment": "protein stability index of a GFP-peptide fusion (GPS, HEK-293T) (PSI 1-6); higher = more stable", "conditions": "c terminus: a fixed tail appended", "values": [
      {"variant": "P5C", "protein stability index": 2.04},
      {"variant": "A6E", "protein stability index": 2.36},
      {"variant": "A8S", "protein stability index": 1.76},
      {"variant": "A4M", "protein stability index": 1.39},
      {"variant": "A6W", "protein stability index": 1.36},
      {"variant": "P5R", "protein stability index": 1.64},
      {"variant": "N13Y", "protein stability index": 1.55},
      {"variant": "Q24L", "protein stability index": 2.19},
      {"variant": "C18L", "protein stability index": 1.42},
      {"variant": "Y15E", "protein stability index": 2.43},
      {"variant": "R23K", "protein stability index": 1.37},
      {"variant": "C21F", "protein stability index": 1.97},
      {"variant": "L3Q", "protein stability index": 1.13},
      {"variant": "A16G", "protein stability index": 1.59}
    ]}
  ]
}
